Data reported in IntAct's records for PubMed 30026228.

B1: Zinc fingers and homeoboxes protein 2 (Homo sapiens), Q9Y6X8 (parent)
chain: MASKRKSTTPCMVRTSQVVEQDVPEEVDRAKEKGIGTPQPDVAKDSWAAELENSSKENEVIEVKSMGESQSKKLQGGYECKYCPYSTQNLNEFTEHVDMQHPNVILNPLYVCAECNFTTKKYDSLSDHNSKFHPGEANFKLKLIKRNNQTVLEQSIETTNHVVSITTSGPGTGDSDSGISVSKTPIMKPGKPKADAKKVPKKPEEITPENHVEGTARLVTDTAEILSRLGGVELLQDTLGHVMPSVQLPPNINLVPKVPVPLNTTKYNSALDTNATMINSFNKFPYPTQAELSWLTAASKHPEEHIRIWFATQRLKHGISWSPEEVEEARKKMFNGTIQSVPPTITVLPAQLAPTKVTQPILQTALPCQILGQTSLVLTQVTSGSTTVSCSPITLAVAGVTNHGQKRPLVTPQAAPEPKRPHIAQVPEPPPKVANPPLTPASDRKKTKEQIAHLKASFLQSQFPDDAEVYRLIEVTGLARSEIKKWFSDHRYRCQRGIVHITSESLAKDQLAIAASRHGRTYHAYPDFAPQKFKEKTQGQVKILEDSFLKSSFPTQAELDRLRVETKLSRREIDSWFSERRKLRDSMEQAVLDSMGSGKKGQDVGAPNGALSRLDQLSGAQLTSSLPSPSPAIAKSQEQVHLLRSTFARTQWPTPQEYDQLAAKTGLVRTEIVRWFKENRCLLKTGTVKWMEQYQHQPMADDHGYDAVARKATKPMAESPKNGGDVVPQYYKDPKKLCEEDLEKLVTRVKVGSEPAKDCLPAKPSEATSDRSEGSSRDGQGSDENEESSVVDYVEVTVGEEDAISDRSDSWSQAAAEGVSELAESDSDCVPAEAGQA

Variants of: B1
Settings: with vhl_human VHL

Row | effect of a mutation on the interaction | Variant
1 | decreasing interaction strength | P440A
2 | decreasing interaction strength | P427A
3 | disrupting interaction strength | P427A;P440A;P464A
4 | decreasing interaction strength | P464A
